Experimental data published in patent US20230250168A1 (MABWELL SHANGHAI BIOSCIENCE, published 2023).
Values belong to the binder of their own block, whether it stands above or below them.

Tests used:
[1] = target: T1, antigen human CLDN18.2, His-tagged (human, UniProt P56856-2 1-261, limits assumed); assay: SPR (BIAcore), antibody captured by anti-human Fc, antigen as analyte
T1 construct: Recombinant antigen used in the Fortebio assay (His-tagged, captured on NTA probe); also called His-tagged antigen; not shown: His tag
Description: Referring to the instructions provided in the Human Antibody Capture Kit (cat No. BR-1008-39, Lot 10261753) from GE Healthcare, the analytical channel and the control sample channel on a CM5 sensor chip were first saturated and coupled with the maximum amount of anti-human Fc antibody, then buffers containing anti-human CLDN18.2 chimeric antibodies, humanized antibodies or a control antibody IMAB362 at 7.5 μg/ml were allowed to flow through the analytical channel and uniformly distribute. Finally, antigen samples diluted in gradient (the initial concentration was 20 nM and diluted by 1:3 to get 8 concentrations, and the concentration 0.741 nM was set to be repeated) were allowed to flow through both the analytical channel and the sample channel, and the photoreactions upon the binding of antibody to antigen were measured. Subsequently, the association constant Kon and dissociation constant Koff and affinity constant KD of each antibody were finally obtained by instrument software fitting analysis.

[2] = target: T2, human CLDN18.2 expressed on cell surfaces (human, UniProt P56856-2 1-261); assay: cell-based or functional assay
[3] = target: T2, human CLDN18.2 expressed on cell …; assay: cell-based or functional assay; remark: listed apart in the source
[4] = target: T2, human CLDN18.2 expressed on cell …; assay: flow cytometry on CHOK1 cells expressing human CLDN18.2, goat anti-human IgG secondary, normalised MFI
Description: The chimeric anti-human CLDN18.2 antibodies were diluted 2-fold in gradient from an initial concentration of 100 nM and solutions of each antibody of 16 concentrations were obtained. 10 μl of the solutions of each antibody of each concentration was added to a 384-well plate. CHOK1 cells expressing CLDN18.2 on the cell surface were collected by centrifugation for 5 min at 100 g at room temperature, and the cells were washed with PBS containing 0.5% BSA once and then were centrifuged for 5 min at 100 g at room temperature. The cells were resuspended at a density of about 2×10⁶ cells/ml, and 10 μl was added to each well of the 384-well plate to which the antibody had been added. After incubation for 1 hour at 4° C., fluorescently labeled secondary goat anti-human IgG antibody was added. After continued incubation for 1 hour at 4° C., the mean fluorescence readings of the cell populations were analyzed by a flow cytometer.

[5] = target: T2, human CLDN18.2 expressed on cell …; assay: FACS of hybridoma supernatants on CHOK1 cells
Description: Balb/c mice were immunized with CHOK1 cells stably expressing human CLDN18.2 protein on cell surfaces. One month later, sera from the mice were analyzed by flow cytometry (FACS), and spleens were taken from mice having high antibody titers in sera. The spleen cells isolated by standard methods were fused with myeloma cells P3X63Ag8.653 using PEG or electrofusion methods. The fused hybridoma cells were seeded in 384 well plates, and after 10-14 days of culture, supernatants obtained were analyzed by FACS for antibody secretion by the hybridoma cells. Several clones were obtained that were able to bind to CHOK1 cells stably expressing human CLDN18.2 protein on cell surfaces and were not able to bind to CHOK1 cells stably expressing human CLDN18.1 protein on cell surfaces. Single cells of the obtained clones were obtained by Limiting Dilution, and each of the monoclonal hybridoma cell clones obtained after being diluted three times secreted only one antibody.

[6] = target: T1, antigen human CLDN18.2, His-tagged; assay: BLI (Fortebio), His-tagged antigen on NTA probe, 100 nM antibody, 1:1 fit
Description: The binding kinetic parameters of the chimeric antibodies and the humanized antibodies thereof to the antigen human CLDN18.2 were analyzed by a Fortebio (BLITZ pro1.1.0.28) instrument. Before performing the assay, an NTA bioprobe was soaked in PBS for 10 min, and the probe was then placed in PBS containing 100 nM antigen for 300 s to capture the His-tagged antigen. The probe was further subjected to a binding reaction with 100 nM antibody for a binding time of 400 s, and the probe was then transferred to PBS and subjected to a dissociation reaction for 600 s. When the assay was finished, data from which the response value of a blank control had been deducted were fitted to a 1:1 Langmuir binding model using software, and then the kinetic constants for antigen-antibody binding were calculated.

Kd [1]: 136 nM
koff [1]: 0.201 s⁻¹
kon [1]: 1.48e+06 M⁻¹ s⁻¹
CDC EC50, BxPC3 cells stably expressing human CLDN18.2 (CCK-8) [2]: 52.2 nM
CDC EC50, CHOK1 cells stably expressing human CLDN18.2 (CCK-8) [2]: 30.4 nM
CDC EC50, NCI-N87 cells stably expressing human CLDN18.2 (CCK-8) [2]: 474 nM
ADCC reporter EC50 (Jurkat NFAT-luciferase effector cells), BxPC3 target cells [3]: 0.106 nM
ADCC reporter EC50 (Jurkat NFAT-luciferase effector cells), CHOK1 target cells [3]: 0.593 nM
ADCC reporter EC50 (Jurkat NFAT-luciferase effector cells), NCI-N87 target cells [3]: 0.0909 nM
B1: IMAB362 (antibody, human IgG1, kappa, V domains shown)
VH: QVQLQQPGAELVRPGASVKLSCKASGYTFTSYWINWVKQRPGQGLEWIGNIYPSDSYTNYNQKFKDKATLTVDKSSSTAYMQLSSPTSEDSAVYYCTRSWRGNSFDYWGQGTTLTVSS
VL: DIVMTQSPSSLTVTAGEKVTMSCKSSQSLLNSGNQKNYLTWYQQKPGQPPKLLIYWASTRESGVPDRFTGSGSGTDFTLTISSVQAEDLAVYYCQNDYSYPFTFGSGTKLEIKR
notes: Chimeric anti-CLDN18.2 antibody of Ganymed, used as control; also called control antibody IMAB362

binding result [4]: binds
B2: 20L17-xiIgG (antibody, V domains shown)
VH: DVQLVESGGGLVQPGGSRKLSCAASGFTFSSFGMHWVRQAPEKGLEWVAYISSGSSTIYYPDTVKGRFTVSRDNPKNTLFLQMTSLRSEDTAMYYCVRLGPRGNVMDHWGQGTSVTVSS
VL: DIVMTQSPSSLTVTAGEKVTMSCKSSQSLLNSGNQRNYLTWYQQKPGQPPKLLIYWASTRESGVPDRFTGSGSGTDFTLTISSVQAEDLAVYYCQNVYFYPLTFGTGTKLELRR
notes: murine variable regions on human IgG1 / kappa constant regions; also called 20L17 chimeric antibody

EC50 (read off the curve) [4]: ~1 nM
B3: 43B5-xiIgG (antibody, V domains shown)
VH: DVQLQESGPDLVKPSQSLSLTCTVSGYSISGAYNWHWIRQFPGNKLEWLAYMQYSGSSNYNPSFKSRISISRDTSKNQFFLQLKSVTTEDTATYYCARMYNGNSFLYWGQGTLVTVSA
VL: DIVMTQSPSSLTVTAGEKVTMNCKSSQSLFNSGNQKNYLTWYQQKPGQPPRLLIYWASTRESGVPDRFTGSGSGTDFTLTISSVQAEDLSLYYCQNSYSYPLTFGAGTKLELKR
notes: murine variable regions on human IgG1 / kappa constant regions; also called 43B5 chimeric antibody

binding result [4]: binds
B4: 48G12-xiIgG (antibody, V domains shown)
VH: EVQLRQSGPELVKPGASVKMSCKASGYTFTTYIINWVKQKPGQGLEWIGYINPYNDDTRYNERVKGKATLTSDKSSSTAYMELSSLTSEDSAVYYCARFYFGNSFTYWGQGTLVTVSA
VL: DIVMTQSPSSLPVTVGERVTMTCKSSQGLFNSGNQRNYLTWYQQKPGQPPKLLIYWASTRESGVPDRFTGSGSGTDFTLTISSVQAEDLAIYYCQNNYIYPLTFGAGTKLELKR
notes: murine variable regions on human IgG1 / kappa constant regions; also called 48G12 chimeric antibody

binding result [4]: binds
B5: 50C14-xiIgG (antibody, V domains shown)
VH: EVQLRQSGPELVKPGASVKMSCKASGYTFTTYIINWVKQKPGQGLEWIGYINPYNDGTRYNERVKGKATLTSDKSSSTAYMELSSLTSEDSAVYYCARFHFGNSFTYWGQGTLVTVSA
VL: DIVMTQSPSSLPVTTGEKVTMTCKSSQGLFNNGNQRNYLTWYQQKPGQPPKLLIYWASTRESGVPDRFIGSGSGTDFTLTISSVQAEDLAIYYCQNNYIFPLTFGAGTKLELKR
notes: murine variable regions on human IgG1 / kappa constant regions; also called 50C14 chimeric antibody

binding result [4]: binds
B6: 43L6-xiIgG (antibody, V domains shown)
VH: QVQLKESGPDLVAPSQSLSLTCSVSGFSLTSYGIHWVRQPPGKGLEWLVVIWSDGRTTYNSGLKSRLSISKDNSKSQVLLKMNSLRTDDTAIYYCVRHPAFGPHAMDYWGQGTSVTVSS
VL: DIVMTQAAPSVPVTPGESVSISCRSSKSLLNSNGNTYLYWFLQRPGQSPQLLIYRMSNLASGVPDRFSGSGSGTDFTLRISRVEAGDVGVYYCMQYLEYPVTFGAGTKLELKR
notes: murine variable regions on human IgG1 / kappa constant regions; also called 43L6 chimeric antibody

binding result [5]: binds
B7: murine antibody 43L6 (antibody, V domains shown)
VH: QVQLKESGPDLVAPSQSLSLTCSVSGFSLTSYGIHWVRQPPGKGLEWLVVIWSDGRTTYNSGLKSRLSISKDNSKSQVLLKMNSLRTDDTAIYYCVRHPAFGPHAMDYWGQGTSVTVSS
VL: DIVMTQAAPSVPVTPGESVSISCRSSKSLLNSNGNTYLYWFLQRPGQSPQLLIYRMSNLASGVPDRFSGSGSGTDFTLRISRVEAGDVGVYYCMQYLEYPVTFGAGTKLELK
notes: Mouse hybridoma antibody (supernatant)

Kd [6]: 0.293 nM
Response [6]: 0.184
koff [6]: 0.000107 s⁻¹
kon [6]: 366000 M⁻¹ s⁻¹
B8: 11M23-xiIgG (antibody, V domains shown)
VH: QVQLKESGPDLVAPSQSLSITCTVSGFSLTNYGVHWVRQPPGKGLEWLVVIWSDGRINYNSALKSRLSITKDNSKRQVFLKMNSLQIDDTAIYYCVRHPAFGPHAMDYWGQGISVTVSS
VL: DIVMTQDAPSIPVTPGESVSISCRSSKSLLNSNGNTYLYWFLQRPGQSPHLLLYRMSNPASGAPDRFSGSGSGTEFTLRISRVEAEDVGVYYCMQYLEYPPTFGAGTRLELKR
notes: Murine variable regions on human IgG1 / kappa constant regions; also called 11M23 chimeric antibody

Kd [6]: 1.49 nM
Response [6]: 0.164
koff [6]: 0.000324 s⁻¹
kon [6]: 218000 M⁻¹ s⁻¹
B9: 11M23-hz00 (antibody, human IgG1, V domains shown)
VH: QVQLVESGGGVVQPGRSLRLSCAASGFSLTNYGVHWVRQAPGKGLEWVAVIWSDGRINYNSALKSRFTISRDNSKNTLYLQMNSLRAEDTAVYYCARHPAFGPHAMDYWGQGTLVTVSS
VL: DIVMTQSPLSLPVTPGEPASISCRSSKSLLNSNGNTYLYWYLQKPGQSPQLLIYRMSNPASGVPDRFSGSGSGTDFTLKISRVEAEDVGVYYCMQYLEYPPTFGAGTKLEIK
notes: Humanized (direct CDR graft)

Kd [6]: 2.92 nM
Response [6]: 0.136
koff [6]: 0.00195 s⁻¹
kon [6]: 670000 M⁻¹ s⁻¹
B10: 11M23-hz22 (antibody, V domains shown)
VH: QVQLVESGGGVVQPGRSLRLSCAASGFSLTNYGVHWVRQAPGKGLEWVAVIWSEGRINYQSALKSRFTISKDNSKNTLYLQMNSLRAEDTAVYYCARHPAFGPHAMDYWGQGTLVTVSS
VL: DIVMTQSPLSLPVTPGEPASISCRSSKSLLSSSGNTYLYWFLQKPGQSPQLLIYRMSNPASGVPDRFSGSGSGTDFTLKISRVEAEDVGVYYCMQYLEYPPTFGAGTKLEIK

Kd [6]: 1.29 nM
Response [6]: 0.174
koff [6]: 0.00046 s⁻¹
kon [6]: 356000 M⁻¹ s⁻¹
B11: 11M23-hz11 (antibody, V domains shown)
VH: QVQLVESGGGVVQPGRSLRLSCAASGFSLTNYGVHWVRQAPGKGLEWVAVIWSDGRINYNSALKSRFTISKDNSKNTLYLQMNSLRAEDTAVYYCARHPAFGPHAMDYWGQGTLVTVSS
VL: DIVMTQSPLSLPVTPGEPASISCRSSKSLLNSNGNTYLYWFLQKPGQSPQLLIYRMSNPASGVPDRFSGSGSGTDFTLKISRVEAEDVGVYYCMQYLEYPPTFGAGTKLEIK

binding result [4]: binds
B12: 46J05-xiIgG (antibody, V domains shown)
VH: DVQLVESGGGLVQPGGSRKLSCAASGFTFSRFGMHWVRQAPKKGLEWVAYISSGSNTIYYADTVKGRFTISRDNPKNTLFLQTTSLRSEDTAIYYCGRLGFYGNSFDHWGQGTLVTVSA
VL: NILMTQSPSSLTVTAGEKVTMNCKSSQSLLNGGNQRNYLTWYQQKAGQPPKLLIYWASTRESGVPDRFTGGGSGTDFTLTISSVQAEDLALYYCQNSYYYPLTFGAGTKLELKR
notes: murine variable regions on human IgG1 / kappa constant regions; also called 46J05 chimeric antibody

binding result [5]: binds
B13: murine antibody 46J05 (antibody, V domains shown)
VH: DVQLVESGGGLVQPGGSRKLSCAASGFTFSRFGMHWVRQAPKKGLEWVAYISSGSNTIYYADTVKGRFTISRDNPKNTLFLQTTSLRSEDTAIYYCGRLGFYGNSFDHWGQGTLVTVSA
VL: NILMTQSPSSLTVTAGEKVTMNCKSSQSLLNGGNQRNYLTWYQQKAGQPPKLLIYWASTRESGVPDRFTGGGSGTDFTLTISSVQAEDLALYYCQNSYYYPLTFGAGTKLELK
notes: as for B7

binding result [5]: binds
B14: murine antibody 20L17 (antibody, V domains shown)
VH: DVQLVESGGGLVQPGGSRKLSCAASGFTFSSFGMHWVRQAPEKGLEWVAYISSGSSTIYYPDTVKGRFTVSRDNPKNTLFLQMTSLRSEDTAMYYCVRLGPRGNVMDHWGQGTSVTVSS
VL: DIVMTQSPSSLTVTAGEKVTMSCKSSQSLLNSGNQRNYLTWYQQKPGQPPKLLIYWASTRESGVPDRFTGSGSGTDFTLTISSVQAEDLAVYYCQNVYFYPLTFGTGTKLELR
notes: as for B7
